Measurements from the DeepSol protein solubility set.

Test: soluble on expression in E. coli; label from the status in PepcDB or PDB records

With “MPISYCVSAKKASVVVESVVGNFTGHENVNLIVARGNRIDVQLVSPEGLKNVCEIPIYGQVLTIALVKCKRDKRHSLIVVTEKWHMAILAYRDGKVVTRAAGCIADPTGRATDNLFSLTIHRNGLIAIRAFEGSVKMIQWESGTDLRHFNVRFDYPNVSDFKFVDTGEDDVYRVAFIYDDDHGKHLQFSDLNMHDKEFRTYSRQASIAADSSVLIPVPHAIGGVIVLGSNSVLYKPNDNLGEVVPYTCSLLENTTFTCHGIVDASGERFLLSDTDGRLLMLLLNVTESQSGYTVKEMRIDYLGETSIADSINYIDNGVVFVGSRLGDSQLIRLMTEPNGGSYSVILETYSNIGPIRDMVMVESDGQPQLVTCTGADKDGSLRVIRNGIGIDELASVDLAGVVGIFPIRLDSNADNYVIVSLSDETHVLQITGEELEDVKLLEINTDLPTIFASTLFGPNDSGIILQATEKQIRLMSSSGLSKFWEPTNGEIISKVSVNAANGQIVLAARDTVYLLTCIVDEMGALDIQLTAEKKFENEIACLDLSNEGDDPNNKATFLVLAFWSTFAMEVIQLPDLITVCHTDLPTKIIPRSIIATCIEEVHYLLVAFGDGALVYYVFDIKTGTHGEPKKSNVGTRPPSLHRVRNKNRQHLFVCSDRPVIIFSASKKLVFSNVNVKLVDTVCSLSSSAYRDCLVISDGNSMVFGTVDDIQKIHVRSIPMGESVLRIAYQKSTSTYGVCSNRTESKAERVFASKNALVTSQSRPKVASTRADMDESPPNTTSSFMVLDQNTFQVLHSHEFGPWETALSCISGQFTNDSSTYYVVGTGLIYPDETETKIGRIVVFEVDDVERSKLRRVHELVVRGSPLAIRILNGKLVAAINSSIRLFEWTTDKELRLECSSFNHVIALDLKVMNEEVAVADVMRSVSLLSYRMLEGNFEEVAKDWNSQWMVTCEFITAESILGGEAHLNLFTVEVDKTRPITDDGRYVLEPTGYWYLGELPKVMTRSTLVIQPEDSIIQYSQPIMFGTNQGTIGMIVQIDDKWKKFLIAIEKAIADSVKNCMHIEHSSYRTFVFQKRAEPPSGFVDGDLVESILDMDRSVAMDILSKVSDKGWDPSLPRDPVEILKVIEDLARMH” as the sequence, how does the “soluble on expression in E. coli” value read?
The value was “not soluble”.

For “MISNFKSISLTYRKAPLEIRERVALNEAECKSLMLRIKDFTDTAELLILSTCNRTEIYYTSNEDYSNDIIKLLGVEKNITGLIQQKEYFEIYNEQADAVLHLFEVGIGLDSQVVGDMQIVNQVKYAYQWSADLNLAGPFLHRLMHTIFFTNKRVVQETAFRDGAASVSYATVELSEELLSATPNANILIVGLGEIGADVCRNFKANTSFKNITLTNRSPLKSEALAAECGIEHVPFETLWEAVAKADLVISSVAKEEPLFTKEEIQKLSILSHKYFIDLSVPRSVDARAEELPGIIVYDIDHIQNRSNEALENRLNAIPHVRKIILDSIVEFNEWSKEMEVSPTINKLKNALEQIRKEELSRFVKQLSDEEAKKVDEITKSIMQKIIKLPVLQLKAACKRGEAETLIDVLNDLFNLDKQPEQIRD”, which “soluble on expression in E. coli” value is on record?
The value was “not soluble”.

For “MNRWQGIIKQYKKYLPVDENTPIVTLYEGNTPLIEADNLARAIGFKGKIYLKYEGLNPTGSFKDRGMTLAISKAVEAGKRAVICASTGNTSASAAAYAARAGLRAYVLLPKGAVAIGKLSQAMIYGAKVLAIQGTFDDALNIVRKIGENFPVEIVNSVNPYRIEGQKTAAFEICDTLGEAPDYHFIPVGNAGNITAYWKGFKIYYEEGKITKLPRMMGWQAEGAAPIVKGYPIKNPQTIATAIKIGNPYSWKSALKAAQESGGKIDAVSDSEILYAYKLIASTEGVFCEPASAASVAGLIKLVREGFFKGGEVVTCTLTGNGLKDPDTAIKVCEEPITVPPDFDEVVKVLGF”, which “soluble on expression in E. coli” value is on record?
Its value is “soluble”.

With “MTARPYEPPPDYPMIEQRWPTTVRNSSIHPHVSSAHPSYRSHSIDAAVNRSSSACFHSPHRPSFPSRGLQKYDYPICGVSPSRHLSYNHFYNQSAAEIEEMLRTRQFPEIAGIYGNDEQPSLRRFTRYNQSINSRAVPPPAPPNPPKMEKHMSHDTSGRGSIFSKSSKKPLFFMGNWTFRDRNKSARPSISEALREERPQSMNLSDIKPATRSKSGEVLGPRNHIHIESITEFPRNIETRVPVKIERSSMVRRKPSNMGGSTEVSITSSSPSPSSSSSTSTGEFKTTITVDDDHQPTAVMRPKKESDTRGTLNNNRYSFQSCVQLRKSCPDLDSTAMSNMEQHRVSKKRTRRAKEKMSQAAWKRKTVKEWSLDDVLLWLQSAQMDDVAGLLIGYDLRGEDLLQWNDQTLAQLGVSNPEIRKKLLDDLSKIIENGPEPAQEDIRNNHRTLFDIVKQTSYDQVLAVETPLTTRDITVTHGRLGCLQITKVNGANLPLKEHDCLLEINERAGEQFKSALMLTKLISDSNGAAIRFVVLRRKTNLVVEESQQKESSSSGISSSPQTPTE” as the sequence, how does the “soluble on expression in E. coli” value read?
Its value is “not soluble”.
